# Assay results published in IntAct's records for PubMed 21633354.
# B1: Condensin complex subunit 2 (Schizosaccharomyces pombe (strain ATCC 38366 / 972)), Q9Y7R3 (parent)
# chain: MKRASLGGHAPVSLPSLNDDALEKKRAKENSRKQRELRRSSALHSITPRRESLNNSSPFNSSHQVPVLSNFEEWIKLATDNKINSTNTWNFALIDYFHDMSLLRDGEDINFQKASCTLDGCVKIYTSRIDSVATETGKLLSGLANDSKVLQQTEEGEDAENDDEDLQKKKERKRAQRSVKTLVKDFESIRAKKFELECSFDPLFKKMCADFDEDGAKGLLMNHLCVDQHGRIVFDSSDTVIKDLENKDVEAESQEAVVAAPIESHDTEMTNVHDNISRETLNGIYKCYFTDIDQLTICPSLQGFEFDSKGNLDVSLLKSLSDEVNMITTTSLVDNTMEKTDADAASLSSDSDGEEGHIVHALEEMAYDEENPYVDVVPKAMDESENPDFGVDTEVNMADGSTMNENYSIISTAAANGVYEYFDKSMKKNWAGPEHWRIQALRKNINNASTVFNSSNTAESSDNVSRSLSSTERKKRRELDNAIDFLQEVDVEALFTPATSSLKLPKSHWKRHNRCLLPDDYQYDSKRLLQLFLKPKMSVLPNADGEGQLQLNKALDDENDLDGIQPHGFDSDGSDNVDEGIPPYGFGDSDSPKQTPLLTPPSSSGFGDNLLLTARLAKPDMLNYAKRAKKVDVRVLKEKLWKCLDLENTIKENSINSHIEGSEMESEETNMPVKSFFSTVNQLEETYEKKELKDISTSFAFICVLHLANEHNLELTSNEDFSDVFIRPGPNLTTLEALENDV
# Variants of: B1
# Conditions: with h2a2_schpo hta2, P04910
row,Variant,effect of a mutation on the interaction
1,S5A;S41A;S52A,decreasing interaction

# Variants of: B1
# Conditions: with h2az_schpo pht1, P48003
# h2az_schpo pht1, P48003, sequence (P48003 whole entry): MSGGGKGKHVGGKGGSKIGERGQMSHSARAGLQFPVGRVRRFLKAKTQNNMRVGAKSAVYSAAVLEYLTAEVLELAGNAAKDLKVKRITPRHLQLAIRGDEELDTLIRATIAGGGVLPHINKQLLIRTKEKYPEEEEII
row,Variant,effect of a mutation on the interaction
1,S5A;S41A;S52A,decreasing interaction
